Measurements reported in the array DNA melting data of Ke et al..

Test: melting temperature; melt of duplexes
Details: sodium 0.0675 M; strand 1 µM

Substance	Tm [°C]
CGACGTGCTCCATGTGCTG+CAGCACATAAGGCACGTCG ((((((((...((((((((+))))))))...))))))))	49
CGACGTGCGCCATGTGCTG+CAGCACATACAGCACGTCG ((((((((...((((((((+))))))))...))))))))	51.3
CGACGTGCGGCATGTGCTG+CAGCACATACGGCACGTCG ((((((((.(.((((((((+)))))))).).))))))))	51.5
CGACGTGCCATATGTGCTG+CAGCACATGTTGCACGTCG ((((((((.(.((((((((+)))))))).).))))))))	50.8
CGACGTGCCACATGTGCTG+CAGCACATAGCGCACGTCG ((((((((...((((((((+))))))))...))))))))	48.5
CGACGTGCCTAATGTGCTG+CAGCACATCACGCACGTCG ((((((((.(.((((((((+)))))))).).))))))))	46.3
CGACGTGCTATATGTGCTG+CAGCACATTCCGCACGTCG ((((((((...((((((((+))))))))...))))))))	47.8
CGACGTGCATCATGTGCTG+CAGCACATGCGGCACGTCG ((((((((..(((((((((+)))))))))..))))))))	52.7
CGACGTGCTTCATGTGCTG+CAGCACATTAGGCACGTCG ((((((((.(.((((((((+)))))))).).))))))))	50
CGACGTGCTCGATGTGCTG+CAGCACATTCAGCACGTCG (((((((((..((((((((+))))))))..)))))))))	51.9
CGACGTGCTCCATGTGCTG+CAGCACATCTTGCACGTCG ((((((((...((((((((+))))))))...))))))))	47.2
CGACGTGCCCGATGTGCTG+CAGCACATTCGGCACGTCG (((((((((..((((((((+))))))))..)))))))))	54.9
CGACGTGCTGAATGTGCTG+CAGCACATCTGGCACGTCG ((((((((...((((((((+))))))))...))))))))	51.7
CGACGTGCCGGATGTGCTG+CAGCACATATCGCACGTCG ((((((((...((((((((+))))))))...))))))))	49.7
CGACGTGCAAAATGTGCTG+CAGCACATATGGCACGTCG ((((((((.(.((((((((+)))))))).).))))))))	50.3
CGACGTGCACGATGTGCTG+CAGCACATGGCGCACGTCG ((((((((.(.((((((((+)))))))).).))))))))	50.2
CGACGTGCACGATGTGCTG+CAGCACATCTCGCACGTCG ((((((((..(((((((((+)))))))))..))))))))	50.6
CGACGTGCGCGATGTGCTG+CAGCACATGGAGCACGTCG ((((((((.(.((((((((+)))))))).).))))))))	56
CGACGTGCTTCATGTGCTG+CAGCACATGATGCACGTCG ((((((((.((((((((((+)))))))))).))))))))	58.8
CGACGTGCAGTATGTGCTG+CAGCACATGCCGCACGTCG ((((((((.(.((((((((+)))))))).).))))))))	52.8
CGACGTGCACAATGTGCTG+CAGCACATACAGCACGTCG ((((((((...((((((((+))))))))...))))))))	45.4
CGACGTGCGTCATGTGCTG+CAGCACATTGCGCACGTCG (((((((((..((((((((+))))))))..)))))))))	54.7
CGACGTGCAATATGTGCTG+CAGCACATACGGCACGTCG ((((((((..(((((((((+)))))))))..))))))))	49.4
CGACGTGCCAAATGTGCTG+CAGCACATTTCGCACGTCG ((((((((.((((((((((+)))))))))).))))))))	54.1
CGACGTGCCAAATGTGCTG+CAGCACATCACGCACGTCG ((((((((...((((((((+))))))))...))))))))	47.3
CGACGTGCAATATGTGCTG+CAGCACATCTCGCACGTCG ((((((((.(.((((((((+)))))))).).))))))))	48.4
CGACGTGCACGATGTGCTG+CAGCACATATGGCACGTCG ((((((((...((((((((+))))))))...))))))))	46.9
CGACGTGCTTCATGTGCTG+CAGCACATCGCGCACGTCG ((((((((...((((((((+))))))))...))))))))	46.2
